# Source: patent publication US11407840B2, “Antibodies to M(H)DM2/4 and their use in diagnosing and treating cancer” (NomoCan Pharmaceuticals LLC, priority 2017, dated 2022)
# Assays:
# [1] = tested on: plasma membrane M(H)DM2/4; experiment: Plasma membrane M(H)DM2/4 after chemotherapeutic agents in vitro; format: cell-based; conditions: data not shown
# [2] = tested on: human, murine, rabbit protein; set-up: key: H—binds to human protein; M—binds to murine protein; R—binds to rabbit protein; conditions: Table 10; cited from earlier work
# [3] = tested on: human pancreatic cancer MIA PaCa-2 cells; experiment: Cell-ELISA, intact cells; format: binding
# Description: (§1) Cell-ELISA Methodology: 8,000-10,000 cells/well of a 96-well microplate were grown overnight. The next day, unbound cells were washed off with sterile 1× PBS. The cells in each well were fixed with freshly prepared 4% buffered paraformaldehyde (pH 7.2) for 1 hour followed by 3 washes with 1× PBS. The wells were then blocked with 5% BSA in PBS (100 ? /well) for 2 hours at room temperature. Microplate wells were then washed 5 times with 300 ? of ice cold 1× PBS. MAbs NMC-103, NMC-204 or NMC-303 at 1 μg/mL in 1% BSA/PBS were then incubated with various cancer or normal untransformed cells for 2 hours at room temperature. Wells were then washed with 300 ? of ice-cold 1× PBS for 5 times and corresponding secondary antibody HRP-GaM F(ab′)2 diluted 1:2500 or 1:5000 in PBS with 1% BSA were added at 100 ? /well for 1 hour at room temperature followed by washing 5 times with 300 ? of ice-cold 1× PBS. TMB Substrate Solution (1-StepTM Ultra TMB-ELISA, ThermoFisher, Cat. No. 34028) was then added at 50 ? ? to each microplate well and incubated at room temperature for 30 minutes. The reaction was stopped by addition of 50 μL, of stop solution (ThermoFisher, Cat. No. SSO4) to each well and absorbance of each well was measured at OD450 nm. The absorbance value of each experimental well was corrected for the absorbance value obtained from wells treated with isotype-identical mAbs included in each experiment. The results are thus expressed as “relative binding”.
# [4] = target: T1, recombinant full-length HDM2 protein (GST tagged) (Homo sapiens, UniProt Q00987); experiment: Western blot (immunoblot); format: binding; conditions: 1 μg/well protein; band at approximately 83 kD; FIG. 2
# T1 construct: reacted with the recombinant full-length HDM2 protein; purchased Abcam ab188727
# Description: Western Blot: As for immunoblots, 1 μg/well of recombinant FIDM2 protein (GST tagged, Abeam, Cat. No. ab188727) was separated on 8-16% sodium dodecyl sulfate (SDS) polyacrylamide gel and proteins were then transferred to polyvinylidene difluoride (PVDF) membrane. The membrane was blocked with 5% milk followed by incubation with monoclonal antibody NMC-103, NMC-204 or NMC-303 at 1 μg/πι ? in 1% milk in PBS for 2 hours. The membrane was then washed×3 times (10 minutes each) and incubated for 1 hour with corresponding HRP-conjugated secondary antibody (Goat anti-Mouse IgG (H&L), F(ab′)2 Frag Cross-adsorbed HRP (HRP-GaM F(ab′)2), ThermoFisher, Cat. No. A24524) diluted 1:5000 in 1% BSA-PBS. The membrane was then washed×3 times and incubated with Pierce ECL Plus Western Blotting Substrate (ThermoFisher, Cat. No. #32132) for 10 min before developing on a LICOR Scanner.
# [5] = target: NMC-P3 peptide (SEQ ID NO:3), amino acids 475-491 of HDM2 (Homo sapiens, UniProt Q00987); experiment: Peptide-ELISA, NMC-P3 peptide; format: binding; conditions: 5 μg/ml peptide dried on plate; OD 450 nm
# Description: Peptide-ELISA Methodology: 5 μg/ml of NMC-P1, NMC-P2 or NMC-P3 peptide antigen was dried onto a 96-well ELISA plate overnight. Plates were then blocked with 5% BSA in 1× phosphate-buffered saline (PBS) (100 ? /well) for 2 hours at room temperature. Microplate wells were then washed 5 times with 300 ? of ice cold 1× PBS. Appropriate dilutions of monoclonal antibodies NMC-103, NMC-204 or NMC-303 in 1% bovine serum albumin (BSA) in PBS solution were then incubated with their corresponding peptides (NMC-P1, NMC-P2 or NMC-P3, respectively) at room temperature. After 2 hours, wells were washed 5 times with 300 ? ? ice-cold PBS/well and 100 ? secondary antibody (HRP-labeled Goat anti-Mouse F(ab′)2 H&L cross-adsorbed secondary antibody (HRP-GaM F(ab′)2), ThermoFisher, Cat. No. A24524) diluted 1:2500 to 1:5000 in PBS-1% BSA solution were added and the incubation continued at room temperature. After 1 hour, the wells were washed again 5 times with 200 ? of ice-cold PBS and 50 μiL of the TMB Substrate Solution (1-StepTM Ultra TMB-ELISA, ThermoFisher, Cat. No. 34028) were added to each well and color was allowed to develop for 30 minutes at room temperature. The reaction was stopped by addition of 50 μ ? ? of stop solution (ThermoFisher, Cat. No. SSO4) to each well and absorbance of each well was read immediately for optical density (OD) at 450 nm.
# [6] = tested on: human breast cancer MCF-7 cells; experiment: Cell-ELISA, intact cells; format: binding; conditions: mAb 1 μg/mL, FIGS. 3-5
# Description: as §1
# [7] = tested on: normal human peripheral blood mononuclear cells (PBMCs); experiment: Cell-ELISA, intact normal cells; format: binding; conditions: freshly isolated PBMCs; FIG. 6
# Description: as §1
# [8] = tested on: CT-26 (subcutaneous tumors); experiment: CT-26 syngeneic mouse model of colon cancer; format: in vivo, mouse (BALB/c); conditions: day 24 post tumor inoculation; 10 mg/kg two times a week for 3 weeks; n=4; FIG. 32A
# Description: Utilizing another syngeneic mouse model of colon cancer, CT-26 (Selby et al., 2016, PLoS One. 9; 11(9): e0161779), the anti-tumor efficacy of a chimeric version of monoclonal antibody NMC-303 was assessed. To create the chimeric version of monoclonal antibody NMC-303, isotype class-switching was performed on a mouse NMC-303 (having heavy variable regions of SEQ ID NO:40 and light chain variable regions of SEQ ID NO:41) to convert it from a mouse IgM to a chimeric IgG1. The mouse Heavy and Light chain variable regions (SEQ ID NO:40 and SEQ ID NO:41, respectively) were cloned into a human Ig gamma-1 chain and human Ig kappa chain as constant region. A total of eight (8) BALB/c mice were injected subcutaneously with CT-26 (800,000 cells/mouse). Mice were then divided into two groups (n=4) that received: A) control antibody (10 mg/kg) or B) the chimeric version of monoclonal antibody NMC-303 (10 mg/kg) two times a week for 3 weeks. […] Due to the human constant region of the chimeric version of the monoclonal antibody NMC-303, the anti-tumor efficacy of this antibody might be improved if tested in mouse models with human immune background. The above in vivo results further support the anti-tumor efficacy of antibodies raised against NMC-P3 immunogen that target the extracellularly accessible epitopes of the M(H)DM2/4 on cancer cells.
# T1 sequence (Q00987 whole entry): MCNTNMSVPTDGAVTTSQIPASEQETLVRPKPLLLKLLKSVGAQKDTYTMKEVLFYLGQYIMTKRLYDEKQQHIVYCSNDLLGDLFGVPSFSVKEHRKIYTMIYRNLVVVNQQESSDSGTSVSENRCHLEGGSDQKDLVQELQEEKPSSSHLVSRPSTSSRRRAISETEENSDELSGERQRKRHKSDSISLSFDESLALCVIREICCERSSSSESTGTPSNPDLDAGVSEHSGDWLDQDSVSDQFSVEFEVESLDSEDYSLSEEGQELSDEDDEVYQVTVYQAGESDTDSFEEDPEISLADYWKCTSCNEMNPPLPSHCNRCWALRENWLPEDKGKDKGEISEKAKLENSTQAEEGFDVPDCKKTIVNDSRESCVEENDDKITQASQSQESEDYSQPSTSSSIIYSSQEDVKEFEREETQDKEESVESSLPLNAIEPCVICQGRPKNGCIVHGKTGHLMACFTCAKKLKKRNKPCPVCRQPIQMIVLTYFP
molecule,measurement,setting,value
Nc1ccn([C@@H]2O[C@H](CO)[C@@H](O)C2(F)F)c(=O)n1 [Gemcitabine],plasma membrane M(H)DM2/4 of treated cells,[1],increase
CC(=O)O[C@H]1C(=O)[C@@]2(C)[C@H]([C@H](OC(=O)c3ccccc3)[C@]3(O)C[C@H](OC(=O)[C@H](O)[C@@H](NC(=O)c4ccccc4)c4ccccc4)C(C)=C1C3(C)C)[C@]1(OC(C)=O)CO[C@@H]1C[C@@H]2O [Paclitaxel],plasma membrane M(H)DM2/4 of treated cells,[1],increase
Cytochrome C [reference compound],Species Reactivity,[2],H
same,"binding to intact, EDTA-released MiaPaCa-2 cells, cell-ELISA","[3]; EDTA 10 mmols, pH 7.2, 5 min, 37° C., FIG. 10",only minimal binding
"NMC-303: mouse monoclonal antibody, IgM isotype, binds NMC-P3 (SEQ ID NO:3); VH SEQ ID NO:40, VL SEQ ID NO:41 (antibody, V domains shown, mAb NMC-303 Heavy Chain Variable Region; mAb NMC-303 Light Chain Variable Region) VH: QVQLQQPGAELVKPGASVKLSCKASGYTFTSYYMYWVKQRPGQGLEWIGGINPRNGGTNFNEKFKNKATLTADKSSTTAYMQLSSLTSEDSAVYYCTRSGYYAMDYWGQGTSVTVSS VL: DIQMTQTTSSLSASLGDRVTISCRASQDISNFLNWYQQKPDGTVKLLIYYTSRLHSGVPSRFSGSGSGTDYSLTISNLEQEDIATYFCQQGNTLPRTFGGGTKLEIK",reactivity with recombinant full-length HDM2-GST protein in immunoblot,[4],reacted
same,binding to NMC-P3 peptide (peptide-ELISA),[5],bound
same,binding to intact MIA PaCa-2 cells when competed with NMC-P3 peptide,[3]; FIG. 8C,competed
same,"relative binding (reactivity) to intact cells, cell-ELISA","[3]; MIA PaCa-2, mAb 1 μg/mL, FIGS. 3-5",reactivity
same,"relative binding (reactivity) to intact cells, cell-ELISA",[6],reactivity
same,"binding to intact normal human PBMCs, cell-ELISA",[7],virtually no binding
"chimeric version of monoclonal antibody NMC-303: chimeric IgG1: mouse NMC-303 variable regions cloned into human Ig gamma-1 chain and human Ig kappa chain constant regions (antibody, V domains shown, human IgG1 and kappa constant regions lack entries; mAb NMC-303 Heavy Chain Variable Region; mAb NMC-303 Light Chain Variable Region, chimeric IgG1: mouse NMC-303 variable regions cloned into human Ig gamma-1 chain and human Ig kappa chain constant regions) VH: QVQLQQPGAELVKPGASVKLSCKASGYTFTSYYMYWVKQRPGQGLEWIGGINPRNGGTNFNEKFKNKATLTADKSSTTAYMQLSSLTSEDSAVYYCTRSGYYAMDYWGQGTSVTVSS VL: DIQMTQTTSSLSASLGDRVTISCRASQDISNFLNWYQQKPDGTVKLLIYYTSRLHSGVPSRFSGSGSGTDYSLTISNLEQEDIATYFCQQGNTLPRTFGGGTKLEIK",average tumor size,[8],726 mm^3
